± gives the uncertainty stated by the source.
Experiment: self-splicing fitness, log relative to wild type (ln ratio); higher = more splicing; Tetrahymena group I intron in knt gene, E. coli kanamycin selection, DiMSum; sequences stand for … in CUCUCU…GGAGGGAAAAGUUAUCAGGCAUGCACCUGGUAGCUAGUCUUUAAACCAAUAGAUUGCAUCGGUUUAAAAGGCAAGACCGUCAAAUUGCGGGAAAGGGGUCAACAGCCGUUCAGUACCAAGUCUCAGGGGAAACUUUGAGAUGGCCUUGCAAAGGGUAUGGUAAUAAGCUGACGGACAUGGUCCUAACCACGCAGCCAAGUCCUAAGUCAACAGAUCUUCUGUUGAUAUGGAUGCAGUUCACAGACUAAAUGUCGGUCGGGGAAGAUGUAUUCUUCUCAUAAGAUAUAGUCGGACCUCUCCUUAAUGGGAGCUAGCGGAUGAAGUGAUGCAACACUGGAGCCGCUGGGAACUAAUUUGUAUGCGAAAGUAUAUUGAUUAGUUUUGGAGUACUCGUGGUCG
Procedure, shortened: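 Library with all eight P1ex-region intron nucleotides randomised, intron inside the knt kanamycin-resistance gene on pET-22b(+), in E. coli BL21(DE3). Cells grew overnight at 37°C or 30°C on LB agar with or without 25 μg/mL kanamycin (plus 100 μg/mL carbenicillin, 50 μM IPTG, 0.2% rhamnose), in six replicate transformations. Pooled colonies were amplicon-sequenced on Illumina HiSeq 2500. DiMSum fitness is the error-weighted combination of wild-type-normalised replicate fold changes, kanamycin versus none.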

Sequence	self-splicing fitness (ln) (30 °C)	self-splicing fitness (ln) (37 °C)
AACUAGCAAUAUUACGGUUC	-4.49 ± 0.24	-2.94 ± 0.21
AACUAGCAAUAUUACGUAGG	-2.36 ± 0.11	-1.29 ± 0.12
AACUAGCAAUAUUACGUCUG	-1.86 ± 0.088	-1.37 ± 0.088
AACUAGCAAUAUUACGUGAU	-1.71 ± 0.11	-1.09 ± 0.13
AACUAGCAAUAUUACGUGUG	-1.47 ± 0.051	-0.869 ± 0.067
AACUAGCAAUAUUACGUUUA	-1.98 ± 0.11	-1.1 ± 0.11
AAGAAGCAAUAUUACGAACC	-0.581 ± 0.14	-0.25 ± 0.17
AAGAAGCAAUAUUACGACCG	-1.05 ± 0.088	0.483 ± 0.14
AAGAAGCAAUAUUACGACUG	-0.231 ± 0.089	0.323 ± 0.16
AAGAAGCAAUAUUACGAGGA	-3.43 ± 0.28	-2.98 ± 0.3
AAGAAGCAAUAUUACGAGUU	-1.15 ± 0.079	-0.169 ± 0.11
AAGAAGCAAUAUUACGAUAC	-2.94 ± 0.19	-1.31 ± 0.17
AAGAAGCAAUAUUACGAUCC	-0.553 ± 0.14	-0.745 ± 0.18
AAGAAGCAAUAUUACGAUCU	0.00748 ± 0.089	-0.373 ± 0.11
AAGAAGCAAUAUUACGAUGG	-1.93 ± 0.14	-2 ± 0.22
AAGAAGCAAUAUUACGAUUG	-2.85 ± 0.26	-1.78 ± 0.19
AAGAAGCAAUAUUACGCAGC	-3.17 ± 0.38	-2.12 ± 0.22
AAGAAGCAAUAUUACGCAUC	-1.92 ± 0.22	-0.986 ± 0.2
AAGAAGCAAUAUUACGCCCG	-0.579 ± 0.18	-1.38 ± 0.23

Sequence	self-splicing fitness (ln) (30 °C)	self-splicing fitness (ln) (37 °C)
AAGAAGCAAUAUUACGCUCA	-0.0265 ± 0.13	-0.132 ± 0.12
AAGAAGCAAUAUUACGCUUA	-1.05 ± 0.12	-0.977 ± 0.13
AAGAAGCAAUAUUACGGCUA	-0.552 ± 0.077	-0.0286 ± 0.1
AAGAAGCAAUAUUACGGUAC	-2.37 ± 0.19	-2.96 ± 0.33
AAGAAGCAAUAUUACGGUCA	-0.625 ± 0.088	0.197 ± 0.1
AAGAAGCAAUAUUACGUACA	-0.642 ± 0.1	-0.0821 ± 0.12
AAGAAGCAAUAUUACGUAUG	-1.93 ± 0.11	-1.14 ± 0.1
AAGAAGCAAUAUUACGUCGG	-0.907 ± 0.12	-1.02 ± 0.14
AAGAAGCAAUAUUACGUGCC	-1.01 ± 0.11	-1.14 ± 0.11
AAGAAGCAAUAUUACGUUUC	-3.62 ± 0.23	-3.15 ± 0.26
AAGCAGCAAUAUUACGAAGG	-2.99 ± 0.16	-3.01 ± 0.26
AAGCAGCAAUAUUACGAGAC	–	-0.225 ± 0.15
AAGCAGCAAUAUUACGAUUC	-1.73 ± 0.081	-0.707 ± 0.092
AAGCAGCAAUAUUACGCCAA	-2.31 ± 0.21	-2.04 ± 0.21
AAGCAGCAAUAUUACGCGGG	-1.43 ± 0.078	-1.27 ± 0.1
AAGCAGCAAUAUUACGCGUG	-3.76 ± 0.14	-2.25 ± 0.11
AAGCAGCAAUAUUACGCUCG	-1.67 ± 0.15	0.286 ± 0.14
AAGCAGCAAUAUUACGGCCA	-0.775 ± 0.18	0.116 ± 0.25
AAGCAGCAAUAUUACGGCCG	-0.9 ± 0.11	-0.057 ± 0.17

Source: the supplement of paper PMC7877785
